Source: paper PMC10397247

Columns and labels:
Experiment in all cases: two-hybrid library CCmax;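 note: natural log of median RNA to DNA barcode read ratio; higher means stronger binding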
Conditions in all cases: mean of both orientations
Core_NNNI-es_KKEK = biological target: T1, Core_NNNI-es_KKEK
T1 chain: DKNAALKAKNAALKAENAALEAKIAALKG

Core_INII-es_KKEK = biological target: T2, Core_INII-es_KKEK
T2 chain: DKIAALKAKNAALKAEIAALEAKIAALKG

Core_NIII-es_KKKE = biological target: T3, Core_NIII-es_KKKE
T3 chain: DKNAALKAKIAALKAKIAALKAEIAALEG

In the case of DENAALEAENAALEAKNAALKAEIAALEG [Core_NNNI-es_EEKE], the interaction score (Core_NNNI-es_KKEK) is reported as 2.2.

DEIAALEAENAALEAKIAALKAEIAALEG [Core_INII-es_EEKE] showed an interaction score (Core_INII-es_KKEK) of 2.11.

Work on DENAALEAEIAALEAEIAALEAKIAALKG [Core_NIII-es_EEEK] yielded an interaction score (Core_NIII-es_KKKE) of 2.14.
